Patent US20260116991A1
Changes are numbered by the printed parent chain.

B1: hAb006LH3L1 (antibody, human IgG1, V domains shown)
VH: EVQLVQSGAEVKKPGSSVKVSCKASGYTFTDYEIHWVRQAPGQGLEWMGAIDPKTGNTAYNQKFMGRVTLTADKSTSTAYMELSSLRSEDTAVYYCTRYFSFAYWGQGTLVTVSS
VL: DIVMTQTPLSLPVTPGEPASISCRSSQTFVHSNGNTYLQWYLQKPGQSPQLLIYKVSNRFSGVPDRFSGSGSGTDFTLKISRVEAEDVGVYYCFQGSHVPYTFGQGTKLEIK
B2: hAb007LH3L1b (antibody, human IgG1, V domains shown)
VH: B1 VH with I34M, A50T, K54E, M65K, Y99P, F100Y, F102L, A103T
VL: B1 VL with T28S, G34R, N35D
B3: hAb007LH3L1 (antibody, human IgG1, V domains shown)
VH: B1 VH with I34M, A50T, K54E, M65K, Y99P, F100Y, F102L, A103T
VL: B1 VL with T28S, N35D
B4: hAb007LH2L1 (antibody, human IgG1, V domains shown)
VH: B1 VH with I34M, A50T, K54E, M65K, L70I, Y99P, F100Y, F102L, A103T
VL: B1 VL with T28S, N35D
B5: F1.73.9 human-murine chimeric antibody (antibody, human IgG1, kappa, V domains shown)
VH: QVQLKQSGAELVRPGASVKLSCKASGYTFTDYYINWVKQRPGQGLEWIARIYPGSGNTYYNEKFKGKATLTAEKSSSTAYMQFSSLTSEDSAVYFCACSTYYTMDYWGQGTSVTVSS
VL: QIVLTQSPAIMSASLGERVTMTCTASSGVSSSYLHWYQQKPGSSPKLWIYTTSNLASGVPARFSGSGSGTSYSLTISSMEAEDAATYYCHQYHRSPYTFGGGTKLEIKR
B6: F1.115.8 human-murine chimeric antibody (antibody, human IgG1, kappa, V domains shown)
VH: EVQLQQSGPELVKPGASVKMSCKASGYTFTEYYMHWVKQSHGKSLEWIGYIYPNNGGNGYNQKFKGKATLTVDKSSSTAYMGLRSLTSEDSAVYYCVRGYYSNWYFDVWGTGTTVTVSS
VL: DVLMTQTPLSLPVSLGDQASISCRSSQSIVHSNGKTYLEWYLQKPGQSPKLLIYKVSNRFSGVPDRFSGSGSGTDFTLKISRVEAEDLGVYYCFQGSHVPFTFGSGTKLEIKR
B7: F1.57.21 human-murine chimeric antibody (antibody, human IgG1, kappa, V domains shown)
VH: QVQLQQSGAELARPGASVKLSCKASGYTFTSYGISWVKQITGQGLEWIGEIYPRSESTYYNEKFKGKATLTADKSSSTAYMELRSLTSEDSAVYFCARDYGNIYSFAYWGQGTLVTVSA
VL: DIQMTQSPASLSASVGETVTITCRTSENIYSYLAWYQQKQGKSPQLLVYNAKTLAEGVPSRFSGSGSGTQFSLKINSLQPEDFGSYYCQHHYGTPLTFGAGTKLELKR
B8: F1.120.16 human-murine chimeric antibody (antibody, human IgG1, kappa, V domains shown)
VH: EFQLQQSGPELVKPGASVKISCKASGYSFTDYNMNWVKQSNGKSLEWIGLIHPKFSVTSYNRKFKGKATLTVDQSSSTAYMQLNSLTSEDSAVYYCARWAGDYFDYWGQGTTLTVSS
VL: DIVLTQSPATLSVTPGDSVSLSCRASQSISNNLHWYQQKSHESPRLLIKYASQSISGIPSRFSGSGSGTDFTLTINSVETEDFGMYFCQQSNSWPQTFGGGTKLEIKR

target: monkey GPC3-His protein (monkey); test: ELISA, monkey GPC3-His coated; antibody 0.004 nM

Row | OD450 nm | Binder
1 | 0.294 | B1
2 | 0.103 | B2
3 | 0.198 | B3
4 | 0.253 | B4

target: monkey GPC3-His protein (monkey); test: ELISA, monkey GPC3-His coated; antibody 2.67 nM

Row | OD450 nm | Binder
5 | 2.36 | B1
6 | 2.37 | B2
7 | 2.39 | B3
8 | 2.47 | B4

target: monkey GPC3-His protein (monkey); test: ELISA, monkey GPC3-His coated; antibody 66.66 nM

Row | OD450 nm | Binder
9 | 2.52 | B1
10 | 2.58 | B2
11 | 2.55 | B3
12 | 2.57 | B4

target: monkey GPC3-His protein (monkey); test: ELISA, monkey GPC3-His coated; antibody 0.02 nM

Row | OD450 nm | Binder
13 | 0.911 | B1
14 | 0.252 | B2
15 | 0.368 | B3
16 | 0.707 | B4

target: monkey GPC3-His protein (monkey); test: ELISA, monkey GPC3-His coated; antibody 13.33 nM

Row | OD450 nm | Binder
17 | 2.44 | B1
18 | 2.47 | B2
19 | 2.39 | B3
20 | 2.47 | B4

target: murine GPC3-his protein (Sino Biological, Cat. No. 50989-M08B) (murine) (UniProt Q8CFZ4); test: ELISA, coated murine GPC3-His
Sequence (Q8CFZ4 25-558 limits assumed): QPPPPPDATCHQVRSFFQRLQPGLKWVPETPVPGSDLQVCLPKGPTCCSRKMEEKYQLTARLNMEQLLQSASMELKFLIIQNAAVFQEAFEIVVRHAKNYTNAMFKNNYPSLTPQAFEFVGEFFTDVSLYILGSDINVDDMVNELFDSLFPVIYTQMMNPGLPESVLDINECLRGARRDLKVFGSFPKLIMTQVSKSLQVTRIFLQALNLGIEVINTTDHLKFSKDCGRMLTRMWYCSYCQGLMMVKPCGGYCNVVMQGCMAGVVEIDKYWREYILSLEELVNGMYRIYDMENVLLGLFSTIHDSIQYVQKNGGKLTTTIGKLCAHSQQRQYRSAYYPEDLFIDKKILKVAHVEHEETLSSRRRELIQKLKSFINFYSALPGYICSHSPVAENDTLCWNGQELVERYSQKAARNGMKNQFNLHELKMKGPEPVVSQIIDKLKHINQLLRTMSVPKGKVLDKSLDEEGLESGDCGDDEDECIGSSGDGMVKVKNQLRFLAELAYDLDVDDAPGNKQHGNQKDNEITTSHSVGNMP

Row | OD450 at 0.0001 nM antibody [OD450 nm] | OD450 at 0.001 nM antibody [OD450 nm] | OD450 at 0.01 nM antibody [OD450 nm] | OD450 at 0.1 nM antibody [OD450 nm] | OD450 at 1 nM antibody [OD450 nm] | OD450 at 10 nM antibody [OD450 nm] | OD450 at 100 nM antibody [OD450 nm] | Binder
21 | 0.05 | 0.06 | 0.06 | 0.58 | 0.41 | 0.86 | 0.52 | B5
22 | 0.05 | 0.05 | 0.07 | 0.34 | 0.4 | 0.7 | 0.6 | B6
23 | 0.05 | 0.06 | 0.07 | 0.13 | 0.2 | 0.79 | 0.65 | B7
24 | 0.05 | 0.07 | 0.16 | 0.72 | 0.76 | 0.8 | 0.54 | B8

target: monkey GPC3-His protein (monkey); test: ELISA, monkey GPC3-His coated; antibody 0.0008 nM

Row | OD450 nm | Binder
25 | 0.116 | B1
26 | 0.069 | B2
27 | 0.079 | B3
28 | 0.101 | B4

target: monkey GPC3 on HEK293T-monkey GPC3 cells (monkey); test: FACS on HEK293T-monkey GPC3 cells

Row | EC50 [nM] | Max MFI [MFI] | Binder
29 | 1.7 | 34600 | B1
30 | 13.7 | 35900 | B2
31 | 13.6 | 37400 | B3
32 | 14.8 | 37800 | B4

target: monkey GPC3-His protein (monkey); test: ELISA, monkey GPC3-His coated; antibody 0.11 nM

Row | OD450 nm | Binder
33 | 1.75 | B1
34 | 0.801 | B2
35 | 1.12 | B3
36 | 1.74 | B4

target: monkey GPC3-His protein (monkey); test: ELISA, monkey GPC3-His coated; antibody 0.53 nM

Row | OD450 nm | Binder
37 | 2.1 | B1
38 | 1.95 | B2
39 | 2.17 | B3
40 | 2.31 | B4
